This is an account of results in paper PMC6971206.

The target in experiment [1] is bc1 complex (Complex III), dimer (S. cerevisiae (endogenous in BY4741 mitochondria)) (UniProt P07256). The experiment can be described thus: native gel or EMSA; BN-PAGE (3-12% NativePage Bis-Tris) of mitochondria solubilised in 2% digitonin, then Western blot or second-dimension SDS-PAGE and immuno decoration; comigration; cells grown in YPGal, YPD or YPG; wild type, rcf1Δ, rcf2Δ and truncation strains. On the technique in general: Mobility shift assays separate free from complexed probe on a gel.

Experiment [2] has as its target respiratory supercomplexes (III2IV and III2IV2) of bc1 complex and cytochrome c oxidase (S. cerevisiae (endogenous in BY4741 mitochondria)) (UniProt P07256). The experiment is described as above.

Take “cytochrome c oxidase (Complex IV), monomeric (from UniProt P00401 1-534; P00410 16-251; P00420 1-269; P04037 26-155; P00424 21-153; P00427 41-148; Q01519 1-83; P32799 10-129)”: the fold change of the share residing in supercomplexes, YPG against YPD in experiment [1] amounted to 1.4 fold.

B1: Rcf2 (respiratory supercomplex factor 2) (natural protein)
chain: MKILTQDEIEAHRSHTLKGGIEGALAGFAISAIIFKVLPRRYPKFKPSTLTWSIKTALWITPPTVLTAICAEEASNNFDATMYGSGSSSEDALDEHRRWKSLSTKDKFVEGLSNNKYKIITGAWAASLYGSWVIVNKDPIMTKAQKIVQARMYAQFITVGLLLASVGLSMYENKLHPNKQKVNEMRRWENALRVAEEEERLEKEGRRTGYVSNEERINSKIFKS
As for B1, in experiment [2], the fold change of the share residing in supercomplexes, YPG against YPD was determined as 3.7 fold.

B2: Rcf1 (respiratory supercomplex factor 1) (natural protein)
chain: MSRMPSSFDVTERDLDDMTFGERIIYHCKKQPLVPIGCLLTTGAVILAAQNVRLGNKWKAQYYFRWRVGLQAATLVALVAGSFIYGTSGKELKAKEEQLKEKAKMREKLWIQELERREEETEARRKRAELARMKTLENEEEIKNLEKELSDLENKLGKK
Take B2: the fold change of the share residing in supercomplexes, YPG against YPD in experiment [2] came out at 2.5 fold.
